According to the DeepSol protein solubility set:

test: soluble on expression in E. coli; label from the status in PepcDB or PDB records

Sequence | soluble on expression in E. coli
MTKLEQIQQWTAQHHASMTYLSNPKTIEYLTGFGSDPIERVLALVVFPDQDPFIFAPALEVEVIKETGWQFPVIGYLDHENPWAMIADQVKQRHVNPEHVAIEKGQLQVARMEALAAQFSAPSFDLDITSFIEHMR | soluble
MTPPEIDFFPDFIADPHRLFNHLKDSVLWDERMRARKTASFGAPYDYSQITYPAVPMPEALEQLCGPIEQLLGFRPNNCLLNCYPDGHSSMGFHSDANEQLVTGTGVVIVSLGHARAMVFRHKESGATFDYSLASGSLLHMSDELQKHWLHAIPKAPDAGERISLSFRQLKTGLEHHHHHH | soluble
MSTRPEVFDLIVIGGGPGGSTLASFVAMRGHRVLLLEREAFPRHQIGESLLPATVHGICAMLGLTDEMKRAGFPIKRGGTFRWGKEPEPWTFGFTRHPDDPYGFAYQVERARFDDMLLRNSERKGVDVRERHEVIDVLFEGERAVGVRYRNTEGVELMAHARFIVDASGNRTRVSQAVGERVYSRFFQNVALYGYFENGKRLPAPRQGNILSAAFQDGWFWYIPLSDTLTSVGAVVSREAAEAIKDGHEAALLRYIDRCPIIKEYLAPATRVTTGDYGEIRIRKDYSYCNTSFWKNGMALVGDAACFVDPVFSSGVHLATYSALLVARAINTCLAGEMSEQRCFEEFERRYRREYGNFYQFLVAFYDMNQDTDSYFWSARKIINTEERANEAFVRLIAGRSNLDEPVFQSVAKDFFTEREGFGAWFGGLVTSMAKGDGGGLMVGEGATDATESTGFAPENFMQGFTREITELQHLAMFGEDRGPETPLWSGGLVPSRDGLAWAVESGEDAAG | soluble
MYNLLTKQEIQLLSLIEYLYDSKEKVPMQVLRRKYEFSHYNINNLLNQLTLLISRVNTHENVHIRIINNQQSIELVADENIPIELMKEAVVRGSLTYMLALDLLLKRYTSAKDFCEEHFINFSIFKQVSDRLNNHLARFNCYLNLKRREKICGNEKDFRSFFYSLFFISGTSLVPFLSKTNQAQLQNFIEIIKNRYPYFTYTDLRKLKLIMSIGLLRYQSGFTITNYPEVAAINLAFPYSEFQLLVNDCFIDEQKEPDTWQAEIHFYYDFFSTLTMYSLVQMETINFANLAIMGMDNSPHATWIFEKCTQLQLDLSAIEVVFLLVNLSNASERLIHFPVEEELSYEVANVSLYEKQYPNVSRTTNYFLKRLPFDKQHPLDALFKETIFLIIRSVLLNKQIPVKILLHSSINQIQENWLAKEINNYCDVPLKFVNHIQEVPDLVITDKNNPLFHASKTFYWHPVPYLDEYYNLKQVVRKIYFAKLRGENSLEGIGC | not soluble
MAHHHHHHMYNILQFVLKAYSIQNEEPSCDVENVKDLLNDQLCYVLYNITNYSSKYQWILILWAPEKNSILIDDIHENKEKKNNFIHIVDKEIYKYNNASKKINKLLYYSFKQNFLDIIFNNYDIPLFEINNFVMLEKCIHDCNNKYYNYTNCPTLLNREKTKPKNDSFDIYNQYNLQKYYLLNIQLRSINNIIILNESSLCHDMKRLLEEPNICLNLFYIDVHNYKIISTHLNIDNIEQVHSIIKENKIFYVIYKVLDTYTFFYICNEICTNTKQKFLYSFFKPYLLEYLKKIKNIPIFLSIELSKTKHLIRFINADLKKNKNKNSN | soluble
MGSDKIHHHHHHAASITLPSGYTKNAVIKWNQTGKASKALINASKKGMMENTNSDAGSDNTLVNVTKLTNSQKVELSKYTLSLINSARSQLGKKPWTYRSGALRFADRVANQYYTHNKSCWDPDHYVAGILRAAKASGLNSNAGQVYEDEAGLPISSQYGSNLRTMSVLKNQIYFNVKQMLFGGFAGSDSQMNDSSRYTEWEHAGDLLGCRTKNYDAKTKYFGVSFSGLKDDQSKISVHMIGVAKRYIQNYKKFNH | not soluble
AIANSLVRRSAQQLSLWRTYCIKHNASEAASPGRNAGRPNYEEFIGRHQRQAQCSIVVQVSSEKSYEELYNYCSSFGSIMGAHHYCVRQDETLHYILLEYATSDEAAAAIGAGVTNGELSGVPVRSPFLWFRAAGGGRRSPKLVANTAPALLSLDGTRQVDQRHLLGLLRGAADIEEQVQQLYEHTRLNELGIRMRFLAALQVQQAIAGMFPAAQAQPFGSSVNGFGRMGCDLDLILRFDSDMGAKIPLEAAVPSRLVYHTKENLSNGRSQTQRHMECFGDMLHLFLPGVCHVRRILQARVPIIKYHHEHLDLEVDLSMSNLTGFYMSELLYMFGEMDPRVRPLTFTIRRWAQTCGLTNPSPGRWISNFSLTCLVMFFLQQLRQPILPTIGALAKAAEPGDSRVTEDGINCTFTRNVDRLGFRSRNQSSLSELLLQFFEFYSQFDFHNRAISLNEGKPLSKPDHSAMYIVNPLEQLLNVSKNVSLEECERLRIEVRNAAWVLESEVENASVPEGDGQELSCGLLNLFKHPEKAVIRPNMFFKPRMVEVSDLFEQKEAGATSSSTPPTPAITYKSASVRQQVQSIKAATRSELKQLRGSGSSVPTSSPNNRRRS | soluble
